B1: ABU-257 (antibody, V domains shown)
VH: EVQLVESGGGLIQPGGSLRLSCAASGFTVSSNYMSWVRQAPGKGLEWVSVIYSGGSTYYADSVKGRFTISRDNSKNTLYLQMNSLRAEDTAVYYCARVTRAGAAGDGGAFDIWGQGTMVTVSS
VL: QSALTQPASVSGSPGQSITISCTGTSSDVGSYNLVSWYQQHPGKAPKLMIYEVSKRPSGVSNRFSGSKSGNTASLTISGLQAEDEADYYCCSYAGSSLWVFGGGTKLTVL
B2: ABU-190 (antibody, V domains shown)
VH: EVQLVESGGGLIQPGGSLRLSCAASGITVSSNYMSWVRQAPGKGLEWVSVIYSGGSTDYADSVKGRFTISRDKSKNTLYLQMNSLRAEDTAVYYCARDLGEAGGMDVWGQGTTVTVSS
VL: AIQLTQSPSSLSASVGDRVTITCRASQGISSYLAWYQQKPGKAPKLLIYAASTLQSGVPSRFSGSGSGTDFTLTISSLQPEDFATYYCQQLNSYPPAFGGGTKVEIK
B3: ABU-308 (antibody, V domains shown)
VH: QVQLVQSGAEVKKPGSSVKVSCKASGGTFSSYAISWVRQAPGQGLEWMGGIIPIFGTANYAHKFQGRVTITADESTSTAYMELSSLRSEDTAVYYCATRRGYSGYGAAYYFDYWGQGTLVTVSS
VL: QSVLTQPPSVSGAPGQRVTISCTGSSSNIGAGYDVHWYQQLPGTAPKLLIYGNSNRPSGVPDRFSGSKSGTSASLAITGLQAEDEADYYCQSYDSSLSGSLFGGGTKLTVL
B4: ABU-344 (antibody, V domains shown)
VH: QVQLVQSGAEVKKPGSSVKVSCKASGGTFSSYTISWVRQAPGQGLEWMGRIIPILGIANYAQKFQGRVTITADKSTSTAYMELSSLRSEDTAVYYCARERGYSGSGSLYYFDYWGQGTLVTVSS
VL: QSVLTQPPSVSGAPGQRVTISCTGSNSNIGAGYDVHWYQQLPGTAPKLLIYVNTNRPSGVPDRFSGSKSGTSASLAITGLQAEDEAHYYCQSYDSSLSGSVFGGGTKLTVL
B5: ABU-296 (antibody, V domains shown)
VH: EVQLLESGGGVVQPGGSLRLSCAASGFTFTTYAMNWVRQAPGRGLEWVSAISDSGGSAYYADSVKGRFTISRDNSKNTLYLQMNSLRAEDTAVYYCAKTRGRGLYDYVWGSKDYWGQGTLVTVSS
VL: not shown
B6: ABU-297 (antibody, V domains shown)
VH: EVQLLESGGGVVQPGGSLRLSCAASGFAFTTYAMNWVRQAPGRGLEWVSAISDGGGSAYYADSVKGRFTISRDNSKNTLYLQMNSLRAEDTAVYYCAKTRGRGLYDYVWGSKDYWGQGTLVTVSS
VL: not shown
B7: ABU-208 (antibody, V domains shown)
VH: QVQLVESGGGVVQPGRSLRLSCVASGFTFSNYDMHWVRQAPGKGLEWVTVISSDGNNRRYADSVKGRFTISRDNSKNMLYLQMNSLKAEDTAVYYCARDEVIAVATGEGMDVWGQGTTVTVSP
VL: EIVMTQSPAILSVSPGERATLSCRASQSVTRNLAWYQQKPGQAPRLLIYGASTRATNIPARFSGSGFGTEFTLIISSLQSEDFAVYYCQQYSNWPLYTFGQGTKLEIK
B8: ABU-174 (antibody, V domains shown)
VH: QVQLQQWGAGLLKPSETLSLTCAVYGGSFSDYYWNWIRRPPGKGLEWIGEITHSGSTNYNPSLKSRVTISVDTSKNQFSLKLSSVTAADTAVYYCARGQGYGRVLLWFGEWGQGTLVTVSS
VL: EIVLTQSPATLSLSPGERATLSCRASQSVSTYLAWYQQKPGQAPRLLIYDASNRATGIPARFSGSGSGTDFTLTISSLEPEDFAVYYCQQRSNWITFGQGTRLEIK
B9: ABU-290 (antibody, V domains shown)
VH: QVQLVQSGAEVKKPGASVKVSCKASGFTFGRHGITWVRQAPGQGLEWMGWISTYSGNTNYAQNLQGRVTMTTDTSTNTAYMELRSLFFDDTAVYYCAKAVSGWPIYFDAWGQGTLVTVSS
VL: EIVMTQSPATLSVSPGERVTLSCRASQSINRNLAWYQQKPGQAPRLLVYDASTRAPGIPTRVSGSGSGTDFTLTISSLQSEDFAVYYCQQYNNWPPITFGQGTRLEIQ
B10: ABU-291 (antibody, V domains shown)
VH: QIQLVQSGAEVKKPGASVRVSCKASGFTFGRYGITWVRQVPGQGLEWMGWISTYSGNTNYAQNLQGRVTMTTDTSTNTAYMELRSLFFDDTAMYYCAKAVSGWPIYFDAWGQGTLVTVSS
VL: EIVMTQSPATLSVSPGERVTLSCRASQSVNRNLAWYQQKPGQAPRLLVYDASTRAPGIPTRVRGSGSGTDFTLTISSLQSEDFAVYYCQQYNNWPPITFGQGTRLEIQ
B11: ABU-322 (antibody, V domains shown)
VH: EVQLVESGGGLIQPGGSLRLSCAASGVIVSRNYMNWVRQAPGKGLEWVSVIYSGGSTFYADSVKGRFTISRDNSKNTLYLQMNSLRAEDTAVYYCARELRGAFDIWGQGTMVTVSS
VL: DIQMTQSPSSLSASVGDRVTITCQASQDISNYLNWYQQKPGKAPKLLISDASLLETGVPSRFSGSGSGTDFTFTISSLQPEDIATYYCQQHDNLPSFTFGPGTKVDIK
B12: ABU-346 (antibody, V domains shown)
VH: EAQLLESGGGLVQPGGSLRLSCAVSGFTVSSYDMSWVRQAPGKRLEWVSFISARGSVTYYADSVRGRFTISRDNFKNTLYVEMNNLRVEDTAVYYCAKGHWSTWGQGTLVTVSS
VL: DVVLTQSPLSLPVTLGQPASISCRSSHSLVYSDGYTHLHWIQERPGQSPRRLIYSVSHRDSGVPDRFSGSGSATDFTLQISRVEAEDVGVYYCMQGSHWPWTFGQGTKVEIK
B13: ABU-343 (antibody, V domains shown)
VH: QVQLVQSGAEVKKPGASVKVSCKASGYTFTNYYMHWMRQAPGQGLEWMGIINPSGGSTSYAHQFQGRVTMTRDTSTSTVYMEMSSLRSEDTAVYFCVVGIGYCSSPSCPPLRWFDYWGQGTLVTVSS
VL: AIQLTQSPSSLSASVGDRVTITCRASQGISSALAWYQQKPGKAPKVLIYDASGLQSGVPSRFSGGGSGTDFTLTISSLQPEDFATYYCQQFNDYPLTFGGGTKVEIK
B14: ABU-339 (antibody, V domains shown)
VH: EMQLLESGGGLVQPGGSLRLSCAASGFTFFSYALSWVRQAPGKGLEWVSGISGISDSGGNTYYADSVKGRFTISRDNSQNMLYLQMNSLRVEDTAVYYCAKERRPVLRYFDWLPIEAPDYWGPGTLVTVSS
VL: AIQLTQSPSSLSASVGDRVTITCRASQGISSSLAWYQQKPGKAPKLLIYSASTLQSGVPSRFSGSGSGTDFTLTITSLQPEDFATYYCQQLNSYPLTFGGGTKVEIK
B15: ABU-383 (antibody, V domains shown)
VH: EVQLVESGGGLVQPGGSLRLSCAASGFTVSSNYMSWVRQAPGKGLEWVSLIYSGGSTYYADSVKGRFTISRDNSKNTLYLQMNSLRAEDTAVYYCARDRPAAAIRFGQGTLVTVSS
VL: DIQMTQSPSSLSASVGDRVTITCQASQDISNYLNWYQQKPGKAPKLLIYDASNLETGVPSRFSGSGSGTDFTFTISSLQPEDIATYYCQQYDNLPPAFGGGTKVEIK
B16: ABU-329 (antibody, V domains shown)
VH: EVQLVESGGGLVQPGGSLRLSCAASGFTFSSYWMHWVRQAPGKGLVWVSRIKSDGSSTSYADSVKGRFTISRDNAKNTLYLQMNSLRAEDTAVYYCAGKKIYYGSSFDPWGQGTLVTVSS
VL: NFMLTQPHSVSESPGKTVTISCTRSSGSIASNYVQWYQQRPGSAPTTVIYEDNQRPSGVPDRFSGSIDSSSNSASLTISGLKTEDEADYYCQSYDSSNQVFGGGTKLTVL
B17: ABU-330 (antibody, V domains shown)
VH: QVQLQESGPGLVKPSQTLSLTCTVSGGSISSGGYYWSWIRQHPGKGLEWIGYIYYSGSTYYNPSLKSRVTISVDTSKNQFSLKLSSVTAADTAVYYCARGGSGSGWYGGRFDYWGQGTLVTVSS
VL: EIVLTQSPATLSLSPGERATLSCRASQSVSSYLAWYQQKPGQAPRLLIYDASNRATGIPARFSGSGSGTDFTLTISSLEPEDFAVYYCQQRSNWLFTFGPGTKVDIK
B18: ABU-337 (antibody, V domains shown)
VH: QVQLVESGGGVVQPGRSLRLSCAASGFTFSTSAMHWVRQAPGKGLEWVAGISYDGSNEHLDSVKGRFTISRDNSKNTLYLQMSSLRPEDTAVYYCARCPFWNYGHCYLDNWGQGTLVTVSS
VL: EIVLTQSPATLSLSPGERATLSCRASQSVSSYLAWYQQKPGQAPRLLIFDASNRATGIPARFSGSGSGTDFTLTISSLEPEDFAVYYCQQRNKWPGTFGQGTKVEIK
B19: ABU-325 (antibody, V domains shown)
VH: EVQLVESGGGLIQPGGSLRLSCAASGFTVSSNYMSWVRQAPGKGLEWVSVIYSGGSTYYADSVKGRFTISRDNSKNTLYLQMNSLRAEDTAVYYCARDRRVGSPYYYYYMDVWGKGTTVTVSS
VL: QTVVTQEPSLTVSPGGTVTLTCASSTGAVTSGYYPNWFQQKPGQAPRALIYSTSNKHSWTPARFSGSLLGGKAALTLSGVQPEDEAEYYCLLYYGGAPVFGGGTKLTVL
B20: ABU-384 (antibody, V domains shown)
VH: EVQLVESGGGLVQPGGSLRLSCAASGFTVSSNYMSWVRQAPGKGLEWVSIIYSGGSTYYADSVKGRFTISRDNSKNTLYLQMNSLRAEDTAVYYCARDYAGRVWGQGTLVTVSS
VL: DIQMTQSPSSLSASVGDRVTITCQASQDIRSYLNWYQQKPGKAPKLLIYDASNLETGVASRFSGSGSGTDFTFTISSLQPEDIATYYCQQYDNLPQTFGQGTKLEIK
B21: ABU-348 (antibody, V domains shown)
VH: QVQLVESGGGVVQPGKSLRLSCAASGFTFSSYGMHWVRQAPGKGLEWVAVISNYGSNKYHADSVKGRITISRDNSKNTLYLQMNSLRAEDTAVYYCAKGGYYDILTGYFPFDYWGQGTLVTVSS
VL: QSALTQPRSVSGSPGQSVTISCTGTSSDVGGYNYVSWYQQYPGKAPKLMIYEVSKRPSGVPDRFSGSKSGNTASLTISGLQAEDEADYYCCSYAGSYTWVFGTGTKVTVL
B22: ABU-385 (antibody, V domains shown)
VH: EVQLVESGGGLVQPGGSLRLSCAASGFTVSSNYMSWVRQAPGKGLEWVSVIYSGGSTYYADSVKGRFTISRDNSKNTLYLQMNSLRAEDTAVYYCARELSYSSSSGVGPKYWGQGTLVTVSS
VL: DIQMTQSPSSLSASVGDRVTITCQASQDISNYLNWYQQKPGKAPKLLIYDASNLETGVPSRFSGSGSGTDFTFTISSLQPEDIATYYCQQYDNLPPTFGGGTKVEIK
B23: ABU-390 (antibody, V domains shown)
VH: EVQLVESGGGLVQPGGSLRLSCAASGFTFSSYDMHWVRQATGKGLEWVSVIGTAGDTYYPGSVKGRFTISRENAKNSLYLQMNSLRAGDTAVYYCARDRDNGSGSYLGWAFDIWGQGTMVTVSS
VL: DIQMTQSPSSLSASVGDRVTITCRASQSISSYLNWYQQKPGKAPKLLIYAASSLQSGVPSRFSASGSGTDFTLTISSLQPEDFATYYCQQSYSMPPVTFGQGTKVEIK

Biological target: S protein of the novel coronavirus SARS-CoV-2 (SARS-CoV-2, UniProt P0DTC2 14-1273)
Test: cell-based or functional assay

B1 and B2 cannot be ordered by “IC50 for neutralizing SARS-CoV-2 pseudovirus (Huh-7 cells, luciferase)” value (“IC50” for short): under 0.5 µg/mL for the first, under 0.1 µg/mL for the second.

B3 and B4 cannot be ordered by “IC50” value: under 0.5 µg/mL for the first, under 1 µg/mL for the second.

B5 and B6 cannot be ordered by “IC50” value: under 0.1 µg/mL for the first, under 0.1 µg/mL for the second.

B7 and B8 cannot be ordered by “IC50” value: under 0.5 µg/mL for the first, under 0.1 µg/mL for the second.

B9 and B10 cannot be ordered by “IC50” value: under 0.1 µg/mL for the first, under 0.5 µg/mL for the second.

In the case of B11, the “IC50” value is reported as under 0.1 µg/mL.

Biological target: biotin-labeled SARS-COV-2 RBD domain (SARS-CoV-2, UniProt P0DTC2 319-541)
Test: SPR, Biacore T200, biotin-RBD on SA chip, antibody as analyte

B12 and B1 cannot be ordered by Kd: under 10 nM for the first, under 10 nM for the second.

B13 and B14 cannot be ordered by Kd: under 20 nM for the first, under 20 nM for the second.

B15 and B16 cannot be ordered by Kd: under 20 nM for the first, under 10 nM for the second.

B17 and B18 cannot be ordered by Kd: under 10 nM for the first, under 20 nM for the second.

B19 and B20 cannot be ordered by Kd: under 10 nM for the first, under 20 nM for the second.

B5 and B6 cannot be ordered by Kd: under 1 nM for the first, under 1 nM for the second.

B7 and B21 cannot be ordered by Kd: under 1 nM for the first, under 10 nM for the second.

B22 and B23 cannot be ordered by Kd: under 20 nM for the first, under 10 nM for the second.

From US20230183322A1 (PEKING UNIVERSITY, published 2023)
